According to patent US20240368668A1, “SUBSTRATES AND BIOMARKERS OF ADAMTS7” (The Broad Institute, Inc., priority 2021, published 2024):
Square brackets hold non-standard residues; d marks the D form. Ends that are not written are not given here.

Target: T1, mouse ADAMTS7 (Mus musculus, UniProt Q68SA9)
T1 construct: Full-length mouse Adamts7 1-1857 (Uniprot Q68SA9, WT or E373Q catalytic mutant); expressed in transfected cells; host or cells: Human Coronary Artery Smooth Muscle Cells (HCA-SMC, Lonza), adenovirus 50 MOI
T1 sequence (Q68SA9 221-1657): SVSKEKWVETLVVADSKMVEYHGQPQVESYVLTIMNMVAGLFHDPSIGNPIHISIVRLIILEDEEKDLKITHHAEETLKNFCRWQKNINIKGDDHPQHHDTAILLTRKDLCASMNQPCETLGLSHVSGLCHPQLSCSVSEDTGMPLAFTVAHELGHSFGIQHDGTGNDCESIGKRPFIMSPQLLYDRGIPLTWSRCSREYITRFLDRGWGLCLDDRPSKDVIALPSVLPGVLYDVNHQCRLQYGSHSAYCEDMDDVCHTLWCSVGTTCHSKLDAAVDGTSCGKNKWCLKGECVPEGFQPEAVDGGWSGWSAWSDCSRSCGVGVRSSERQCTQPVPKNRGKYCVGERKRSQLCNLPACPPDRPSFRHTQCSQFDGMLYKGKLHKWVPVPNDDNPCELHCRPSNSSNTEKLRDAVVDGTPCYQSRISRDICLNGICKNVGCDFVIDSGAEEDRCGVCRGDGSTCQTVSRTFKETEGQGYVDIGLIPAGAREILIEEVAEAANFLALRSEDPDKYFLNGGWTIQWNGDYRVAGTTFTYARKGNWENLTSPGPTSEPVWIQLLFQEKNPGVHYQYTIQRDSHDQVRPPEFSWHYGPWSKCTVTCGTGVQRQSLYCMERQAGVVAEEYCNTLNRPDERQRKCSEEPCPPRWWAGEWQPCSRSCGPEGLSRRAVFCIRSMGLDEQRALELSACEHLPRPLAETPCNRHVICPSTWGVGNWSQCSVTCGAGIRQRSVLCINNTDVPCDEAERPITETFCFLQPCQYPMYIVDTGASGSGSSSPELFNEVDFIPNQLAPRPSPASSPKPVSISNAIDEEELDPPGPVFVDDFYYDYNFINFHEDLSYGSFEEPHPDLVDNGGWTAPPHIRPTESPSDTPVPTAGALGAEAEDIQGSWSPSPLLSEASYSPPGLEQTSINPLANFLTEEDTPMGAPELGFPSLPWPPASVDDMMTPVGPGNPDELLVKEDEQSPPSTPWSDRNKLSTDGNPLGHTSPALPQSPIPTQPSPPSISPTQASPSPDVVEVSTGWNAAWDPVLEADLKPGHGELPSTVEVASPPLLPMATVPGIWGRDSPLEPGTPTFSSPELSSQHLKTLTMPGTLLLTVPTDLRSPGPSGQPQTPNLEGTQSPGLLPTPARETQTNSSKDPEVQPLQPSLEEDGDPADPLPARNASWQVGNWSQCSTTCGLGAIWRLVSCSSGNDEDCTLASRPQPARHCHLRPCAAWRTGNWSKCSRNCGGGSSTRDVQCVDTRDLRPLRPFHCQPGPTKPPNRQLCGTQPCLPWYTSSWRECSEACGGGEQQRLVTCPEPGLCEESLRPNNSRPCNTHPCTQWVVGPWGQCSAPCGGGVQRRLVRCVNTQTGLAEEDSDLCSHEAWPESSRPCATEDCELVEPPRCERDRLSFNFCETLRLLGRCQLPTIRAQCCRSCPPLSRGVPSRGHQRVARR
Experiment: TMT10 TAILS N-terminomics, SMC1 experiment (Ad-mADAMTS7 WT vs EQ vs Luc, technical replicates, trypsin digest)
Assay type: cell-based
Conditions: TAILS neo-N-terminal peptide abundance; log fold change, Ad-mADAMTS7 WT over Luc
Outline: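 Full-length mouse ADAMTS7 (WT or E373Q mutant, C-terminal 3xFLAG) or luciferase was transduced via adenovirus, 50 MOI, into HCA-SMC (SMC1, SMC2) or HUVEC. SMC1: pooled media, technical triplicates 400 ug; SMC2: process triplicates 300 ug; HUVEC: process triplicates 200 ug, bFGF2 10 ng/ml.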

Substance | logFC.mWT.over.Lux
LTBP1_393 (LTATNFR; listed as Homo sapiens) | 4.03
HSPG2_3542 (IAHVELADAGQYR; listed as Homo sapiens) | 0.60
HSPG2_3672 (SFLPLPTIKDAYR; listed as Homo sapiens) | 1.09
LOXL2_318 (AYKPEQPLVR; listed as Homo sapiens) | 0.78
FBLN2_260 (LGPPAPVQAKAR; listed as Homo sapiens) | 3.46
GSN_413 (HIANVER; listed as Homo sapiens) | 1.99
HSPG2_2331 (ANLAYPAGSTQPIR; listed as Homo sapiens) | 2.07
FBN1_53 (LKGPNVCGSR; listed as Homo sapiens) | 4.89
LTBP2_1560 (TTYTECCCQDGEAWSQQCALCPPR; listed as Homo sapiens) | 0.94
GSN_35 (SQAGAPQGR; listed as Homo sapiens) | 4.42
FN1_1731 (FTDVDVDSIKIAWESPQGQVSR; listed as Homo sapiens) | 2.59
HSPG2_2333 (LAYPAGSTQPIR; listed as Homo sapiens) | 1.93
EFEMP1_124 (AVAGPEMQTGR; listed as Homo sapiens) | 3.84
LTBP2_1023 (GKCTNLEGSFR; listed as Homo sapiens) | 0.74
FN1_281 (SGSGPFTDVR; listed as Homo sapiens) | 2.44
CCDC80_66 (LEEPNLQPLQR; listed as Homo sapiens) | 3.84
FN1_1656 (SSSPVTGYR; listed as Homo sapiens) | 1.44
ACTB_21 (FAGDDAPR; listed as Homo sapiens) | 1.09
LTBP1_540 (HQQVIPHVYPVAAKTQLGR; listed as Homo sapiens) | 2.83
IGFBP3_31 (SAGLGPVVR; listed as Homo sapiens) | 2.46
HSPG2_1937 (SSAGQQVAR; listed as Homo sapiens) | 0.79
LTBP1_494 (SVQIHQVSR; listed as Homo sapiens) | 2.61
HSPG2_3250 (SPLPWQHR; listed as Homo sapiens) | 1.00
LASP1_123 (HEEFEKSR; listed as Homo sapiens) | 0.87

Substance | logFC.mWT.over.Lux
LOX_124 (WFQAGYSTSR; listed as Homo sapiens) | 3.70
FLNA_1285 (LTQTGGPHVKAR; listed as Homo sapiens) | 4.95
FLNA_695 (FTVDAKHGGKAPLR; listed as Homo sapiens) | 4.79
HSPG2_4075 (GCVGEVSVNGKR; listed as Homo sapiens) | 0.77
FBN1_29 (LEAGNVKETR; listed as Homo sapiens) | 4.70
GALNT2_31 (LAGGAGGGAGR; listed as Homo sapiens) | 0.76
LTBP2_485 (SVQIHQVAQVR; listed as Homo sapiens) | 1.80
LTBP1_546 (HVYPVAAKTQLGR; listed as Homo sapiens) | 3.62
FN1_40 (QSPVAVSQSKPGCYDNGKHYQINQQWER; listed as Homo sapiens) | 3.87
HSPG2_2688 (VADSGEYVCR; listed as Homo sapiens) | 3.16
HEG1_49 (GAGLELQLER; listed as Homo sapiens) | 1.72
EFEMP1_125 (VAGPEMQTGR; listed as Homo sapiens) | 1.92
LOXL1_219 (VASAGVIYPYQPR; listed as Homo sapiens) | 0.99
LOXL2_37 (FQQPAPEYHQPQAPANVAKIQLR; listed as Homo sapiens) | 3.37
LTBP2_533 (SGEPPRPLPPAAPR; listed as Homo sapiens) | 1.34
FBLN2_259 (ALGPPAPVQAKAR; listed as Homo sapiens) | 1.29
EHBP1L1_298 (TAPTPAPR; listed as Homo sapiens) | 1.01
HSPG2_4021 (LNKDGSLR; listed as Homo sapiens) | 0.70
AEBP1_37 (FLEGFLSELEPEPR; listed as Homo sapiens) | 3.23
FN1_2143 (FEEHGFR; listed as Homo sapiens) | 1.11
LOXL2_38 ([code q]QPAPEYHQPQAPANVAKIQLR; not fully specified; listed as Homo sapiens) | 1.37
IGFBP7_101 (AAGGPGVSGVCVCKSR; listed as Homo sapiens) | 3.99
APLP2_579 (ISETPVDVR; listed as Homo sapiens) | 2.27
LTBP2_760 (SSGALPGPAER; listed as Homo sapiens) | 1.54

Substance | logFC.mWT.over.Lux
LOX_80 (ANASAQQPR; listed as Homo sapiens) | 2.02
HLA−C_52 (VDDTQFVR; listed as Homo sapiens) | 1.14
LOX_58 (LSLGSQYQPQR; listed as Homo sapiens) | 0.88
FN1_36 (MVQPQSPVAVSQSKPGCYDNGKHYQINQQWER; listed as Homo sapiens) | 3.73
LTBP2_1584 (SSEVYAQLCNVAR; listed as Homo sapiens) | 1.40
IGFBP3_200 (FSSESKR; listed as Homo sapiens) | 2.33
EFHD2_67 (QGIGEPQSPSR; listed as Homo sapiens) | 0.81
LOX_126 (QAGYSTSR; listed as Homo sapiens) | 1.61
FN1_47 ([code q]SKPGCYD[code n]GKHYQINQQWER; not fully specified; listed as Homo sapiens) | 3.08
FN1_282 (GSGPFTDVR; listed as Homo sapiens) | 3.74
IFI30_43 (YKTGNLYLR; listed as Homo sapiens) | 3.19
ACTB_105 (LTEAPLNPKANR; listed as Homo sapiens) | 1.88
IGFBP3_32 (AGLGPVVR; listed as Homo sapiens) | 4.06
HSPG2_3813 (SSGFIGCVR; listed as Homo sapiens) | 0.81
LOX_81 (NASAQQPR; listed as Homo sapiens) | 1.38
HSPG2_4133 (DGFKGDLCEHEENPCQLR; listed as Homo sapiens) | 0.63
LGALS1_53 (HGDANTIVCNSKDGGAWGTEQR; listed as Homo sapiens) | 4.83
LTBP2_1371 (SGQKGHAPCSSVLGR; listed as Homo sapiens) | 1.24
FN1_2217 (FQDTSEYIISCHPVGTDEEPLQFR; listed as Homo sapiens) | 2.41
HSPG2_275 (LLPGSVR; listed as Homo sapiens) | 2.87
LGALS3BP_447 (FQAPSDYR; listed as Homo sapiens) | 4.70
HSPG2_4004 (SAEPLALGR; listed as Homo sapiens) | 0.88
HTRA1_33 (LAAGCPDR; listed as Homo sapiens) | 2.87
